Assay [1] concerns CBCA, THCA, and CBDA production. The experiment in a line: In vivo TS activity assay, Example 2 protein engineering of A. niger CBCAS, cultures fed olivetolic acid. To be noted: for average CBCA titer compared with the A. niger positive control / Mean CBCA / Mean CBDA / Mean THCA: secondary screen; for Mean CBCA / Mean CBDA / Mean THCA: olivetolic acid (Table 8); for % CBCA / % CBDA / % THCA: share of terminal cannabinoid product profile. The assay is classed as cell-based, S. cerevisiae. How it is done: (§1) An assay to detect TS activity was conducted as follows: each thawed glycerol stock of candidate CBCAS transformants was stamped into a well of YEP+4% dextrose media. Samples were incubated at 30° C. in a shaking incubator for 2 days. A portion of each of the resulting cultures was stamped into a well of YEP+4% galactose+1 mM olivetolic acid (FIG. 1 Structure 6a). Samples were incubated at 20° C. and shaken in a shaking incubator for 4 days. Every 24 hours during those 4 days, 2% galactose and 1 mM olivetolic acid were spiked into the cultures. Sodium citrate buffer adjusted to pH 5.5 was added to each well at a final concentration of 100 mM. Samples were incubated at 20° C. and shaken in a shaking incubator for 2 days. A portion of each of the resulting production cultures was stamped into a well of phosphate buffered saline (PBS). Optical measurements were taken on a plate reader, with absorbance measured at 600 nm and fluorescence at 528 nm with 485 nm excitation. Samples were incubated at 30° C. in a shaking incubator for 2 days. 100% methanol was stamped into the production cultures in half-height deepwell plates. Plates were heat sealed and frozen. Samples were then thawed for 30 min and spun down at 4° C. A portion of the supernatant was stamped into half-area 96 well plates. CBCA, THCA, and CBDA production in the samples was quantified via liquid chromatography-mass spectrometry (LC-MS).
(§2) To determine whether engineering of the A. niger CBCAS identified in Example 1 (corresponding to SEQ ID NO: 29 (with signal peptides); SEQ ID NO: 27 (without signal peptides and including an N-terminal methionine (UniProt accession No. A0A254UC34)); or SEQ ID NO: 25 (without signal peptides and without the N-terminal methionine)), could alter CBCAS substrate specificity, product specificity and/or amounts of products produced, point mutations were generated in A. niger CBCAS and the mutant versions of the protein were expressed in S. cerevisiae. A library containing 1047 A. niger CBCAS mutants was generated and screened. As in Example 1, each CBCAS mutant in the library, as well as the enzymes expressed by positive control strains, included an N-terminal MFalpha2 signal peptide (SEQ ID NO: 16) (with a methionine residue added at the N-terminus of the MFalpha2 signal peptide) and a C-terminal HDEL signal peptide (SEQ ID NO: 17).
Production of compounds of Formulae (9), (10), and/or (11), including compounds of Formulae (9a), (10a), and/or (11a) by strains expressing the mutated versions of A. niger CBCAS was quantified and compared to the production of the same compounds by a strain expressing wild-type A. niger CBCAS, a strain expressing a C. sativa THCAS, and a strain expressing a C. sativa CBDAS. The strains were screened using the same assay described in Example 1. Production of CBCA, THCA, and/or CBDA in the samples was quantified via LC-MS.
(§3) Of the original 1047 library members, 55 strains were elevated to a secondary screen to verify CBCA production. The experimental protocol for the secondary screen was identical to the primary screen, except that additional biological replicates were included per strain, and replicate production cultures for each strain were separately fed 1 mM boluses of olivetolic acid or 1 mM boluses of divaric acid. All strains were screened in quadruplicate.

In assay [2] the test system is CBCVA, THCVA, and CBDVA production. The experiment in a line: In vivo TS activity assay, Example 2 protein engineering of A. niger CBCAS, cultures fed divaric acid. Format: cell-based, S. cerevisiae. To be noted: for Mean CBCVA / Mean CBDVA / Mean THCVA: S. cerevisiae strains expressing A. niger CBCAS mutants; for Mean CBCVA / Mean CBDVA / Mean THCVA / average CBCVA titer compared with the A. niger positive control: secondary screen; for Mean CBCVA / Mean CBDVA / Mean THCVA / % CBCVA / % CBDVA / % THCVA: fed divaric acid; for % CBCVA / % CBDVA / % THCVA: share of terminal cannabinoid product profile. The protocol:
as §1, §2, §3

B1: t865743 (protein)
chain: MGNTTSIAGRDCLISALGGNSALAVFPNELLWTADVHEYNLNLPVTPAAITYPETAAQIAGVVKCASDYDYKVQARSGGHSFGNYGLGGADGAVVVDMKHFTQFSMDDETYEAVIGPGTTLNDVDIELYNNGKRAMAHGVCPTIKTGGHFTIGGLGPTARQWGLALDHVEEVEVVLANSSIVRASNTQNQDVFFAVKGAAANFGIVTEFKVRTEPAPGLAVQYSYTFNLGSTAEKAQFVKDWQSFISAKNLTRQFYNNMMIFDGDIILEGLFFGSKEQYDALGLEDHFAPKNPGNILVLTDWLGMVGHALEDTILKLVGNTPTWFYAKSLGFRQDTLIPSAGIDEFFEYIANHTAGTPAWFVTLSLEGGAINDVAEDATAYAHRDVLFWVQLFMVNPVGPISDTTYEFTDGLYDVLARAVPESVGHAYLGCPDPRMEDAQQKYWRTNLPRLQELKEELDPKNTFHHPQGVMPA
In the case of B1, in assay [1], the “average CBCA titer compared with the A. niger positive control” value is on record as “higher”, the “Mean CBCA” value came to 58061.40 µg/L, the “Mean CBDA” value was found to be 11245.27 µg/L and the “Mean THCA” value turned out to be 3389.10 µg/L. In addition, in assay [1], the “% CBCA” value is 79.87%, the “% CBDA” value stood at 15.47% and the “% THCA” value is 4.66%. Moreover, in assay [2], the “Mean CBCVA” value turned out to be 4972.60 µg/L, the “Mean CBDVA” value is 0.00 µg/L, the “Mean THCVA” value amounted to 2989.22 µg/L and the “average CBCVA titer compared with the A. niger positive control” value is “higher”. In addition, in assay [2], the “% CBCVA” value stood at 62.46%, the “% CBDVA” value amounted to 0.00% and the “% THCVA” value is on record as 37.54%.

B2: t865737 (protein)
chain: MGNTTSIAGRDCLISALGGNSALAVFPNELLWTADVHEYNLNLPVTPAAITYPETAAQIAGIVKCASDYDYKVQARSGGHSFGNYGLGGADGAVVVDMKHFTQFSMDDETYEAVIGPGTTLNDVDIELYNNGKRAMAHGVCPTIKTGGHFTIGGLGPTARQWGLALDHVEEVEVVLANSSIVRASNTQNQDVFFAVKGAAANFGIVTEFKVRTEPAPGLAVQYSYTFNLGSTAEKAQFVKDWQSFISAKNLTRQFYNNMVIFDGDIILEGLFFGSKEQYDALGLEDHFAPKNPGNILVLTDWLGMVGHALEDTILKLVGNTPTWFYAKSLGFRQDTLIPSAGIDEFFEYIANHTAGTPAWFVTLSLEGGAINDVAEDATAYAHRDVLFWVQLFMVNPVGPISDTTYEFTDGLYDVLARAVPESVGHAYLGCPDPRMEDAQQKYWRTNLPRLQELKEELDPKNTFHHPQGVMPA
As to B2, in assay [1], the “average CBCA titer compared with the A. niger positive control” value is “higher”, the “Mean CBCA” value was determined as 53771.53 µg/L, the “Mean CBDA” value was 10699.35 µg/L and the “Mean THCA” value turned out to be 2873.74 µg/L. For the same molecule, in assay [1], the “% CBCA” value is on record as 79.85%, the “% CBDA” value is reported as 15.89% and the “% THCA” value is listed as 4.27%. Moreover, in assay [2], the “Mean CBCVA” value came out at 4271.01 µg/L, the “Mean CBDVA” value came out at 0.00 µg/L, the “Mean THCVA” value turned out to be 2136.23 µg/L and the “average CBCVA titer compared with the A. niger positive control” value is listed as “higher”. Moreover, in assay [2], the “% CBCVA” value was determined as 66.66%, the “% CBDVA” value amounted to 0.00% and the “% THCVA” value was 33.34%.

B3: t865744 (protein)
chain: MGNTTSIAGRDCLISALGGNSALAVFPNELLWTADVHEYNLNLPVTPAAITYPETAAQIAGVVKCASDYDYKVQARSGGHSFGNYGLGGADGAVVVDMKHFTQFSMDDETYEAVIGPGTTLNDVDIELYNNGKRAMAHGVCPTIKTGGHFTIGGLGPTARQWGLALDHVEEVEVVLANSSIVRASNTQNQDVFFAVKGAAANFGIVTEFKVRTEPAPGLAVQYSYTFNLGSTAEKAQFVKDWQSFISAKNLTRQFYNNMFIFDGDIILEGLFFGSKEQYDALGLEDHFAPKNPGNILVLTDWLGMVGHALEDTILKLVGNTPTWFYAKSLGFRQDTLIPSAGIDEFFEYIANHTAGTPAWFVTLSLEGGAINDVAEDATAYAHRDVLFWVQLFMVNPVGPISDTTYEFTDGLYDVLARAVPESVGHAYLGCPDPRMEDAQQKYWRTNLPRLQELKEELDPKNTFHHPQGVMPA
Turning to B3, in assay [1], the “average CBCA titer compared with the A. niger positive control” value was “higher”, the “Mean CBCA” value was determined as 44305.26 µg/L, the “Mean CBDA” value came to 7187.94 µg/L and the “Mean THCA” value was found to be 2369.76 µg/L. Further, in assay [1], the “% CBCA” value is 82.26%, the “% CBDA” value is recorded as 13.34% and the “% THCA” value came out at 4.40%. Besides, in assay [2], the “Mean CBCVA” value is 3752.20 µg/L, the “Mean CBDVA” value was found to be 0.00 µg/L, the “Mean THCVA” value is 2162.61 µg/L and the “average CBCVA titer compared with the A. niger positive control” value was “higher”. In addition, in assay [2], the “% CBCVA” value was determined as 63.44%, the “% CBDVA” value came out at 0.00% and the “% THCVA” value is 36.56%.

B4: t865746 (protein)
chain: MGNTTSIAGRDCLISALGGNSALAVFPNELLWTADVHEYNLNLPVTPAAITYPETAAQIAGVVKCASDYDYKVQARSGGHSFGNYGLGGADGAVVVDMKHFTQFSMDDETYEAVIGPGTTLNDVDIELYNNGKRAMAHGVCPTIKTGGHFTIGGLGPTARQWGLALDHVEEVEVVLANSSIVRASNTQNQDVFFAVKGAAANFGIVTEFKVRTEPAPGLAVQYSYTFNLGSTAEKAQFVKDWQSFISAKNLTRQFYNNMVIFDGDIILEGLFFGSKEQYDALGLEDHFAPKNPGNILVLTDWLGMVGHALEDTILKLVGNTPTWFYAKSLGFRQDTLIPSAGIDEFFEYIANHTAGTPAWFVTLSLEGGAINDVAEDATAYAHRDALFWVQLFMVNPVGPISDTTYEFTDGLYDVLARAVPESVGHAYLGCPDPRMEDAQQKYWRTNLPRLQELKEELDPKNTFHHPQGVMPA
modifications: expressed in S. cerevisiae strain
On to B4, for which, in assay [1], the “average CBCA titer compared with the A. niger positive control” value is listed as “higher”, the “Mean CBCA” value was determined as 49195.03 µg/L, the “Mean CBDA” value turned out to be 9456.09 µg/L and the “Mean THCA” value is 2882.16 µg/L. Moreover, in assay [1], the “% CBCA” value amounted to 79.95%, the “% CBDA” value is 15.37% and the “% THCA” value worked out at 4.68%. In assay [2], the “Mean CBCVA” value came to 4751.98 µg/L, the “Mean CBDVA” value was determined as 0.00 µg/L, the “Mean THCVA” value came out at 2061.14 µg/L and the “average CBCVA titer compared with the A. niger positive control” value is reported as “higher”. In assay [2], the “% CBCVA” value turned out to be 69.75%, the “% CBDVA” value was 0.00% and the “% THCVA” value worked out at 30.25%.

B5: t865717 (protein)
chain: MGNTTSIAGRDCLISALGGNSALAVFPNELLWTADVHEYNLNLPVTPAAITYPETAAQIAGVVKCASDYDYKVQARSGGHSFGNYGLGGADGAVVVDMKHFTQFSMDDETYVAVIGPGTTLSDVDIELYNNGKRAMAHGVCPTIKTGGHFTIGGLGPTARQWGLALDHVEEVEVVLANSSIVRASNTQNQDVFFAVKGAAANFGIVTEFKVRTEPAPGLAVQYSYTFNLGSTAEKAQFVKDWQSFISAKNLTRQFYNNMVIFDGDIILEGLFFGSKEQYDALGLEDHFAPKNPGNILVLTDWLGMVGHALEDTILKLVGNTPTWFYAKSLGFRQDTLIPSAGIDEFFEYIANHTAGTPAWFVTLSLEGGAINDVAEDATAYAHRDVLFWVQLFMVNPVGPISDTTYEFTDGLYDVLARAVPESVGHAYLGCPDPRMEDAQQKYWRTNLPRLQELKEELDPKNTFHHPQGVMPA
B5: in assay [1], the “average CBCA titer compared with the A. niger positive control” value is reported as “higher”, the “Mean CBCA” value stood at 44204.43 µg/L, the “Mean CBDA” value was determined as 9698.33 µg/L and the “Mean THCA” value amounted to 2648.36 µg/L. Moreover, in assay [1], the “% CBCA” value is reported as 78.17%, the “% CBDA” value was 17.15% and the “% THCA” value is on record as 4.68%. Moreover, in assay [2], the “Mean CBCVA” value amounted to 3668.51 µg/L, the “Mean CBDVA” value worked out at 0.00 µg/L, the “Mean THCVA” value was 1721.38 µg/L and the “average CBCVA titer compared with the A. niger positive control” value is recorded as “higher”. Moreover, in assay [2], the “% CBCVA” value was 68.06%, the “% CBDVA” value is recorded as 0.00% and the “% THCVA” value stood at 31.94%.

Values taken from patent publication US20230137139A1, “BIOSYNTHESIS OF CANNABINOIDS AND C[…]” (priority 2020, published 2023).
